From patent publication US20150010589A1 come the findings set out here.

The target in test [1] is soluble collagen type I (pepsin-digested, non-fibrillar, triple helical; BD Biosciences) (human) (UniProt P02452). Kind of test: SPR, saliva injected over immobilized collagen type I, 120 sec at 20 µl/min. In general terms: In SPR one partner is held on a chip, and binding of the other changes the refractive index at the surface.
For test [2], the target named is soluble collagen type III (pepsin-digested, non-fibrillar; BD Biosciences) (human) (UniProt P02461). Briefly: SPR, saliva injected over immobilized collagen type III, 120 sec at 20 µl/min.
Sequence of soluble collagen type III (pepsin-digested, non-fibrillar; BD Biosciences) (human) (P02461 168-1196 limits assumed): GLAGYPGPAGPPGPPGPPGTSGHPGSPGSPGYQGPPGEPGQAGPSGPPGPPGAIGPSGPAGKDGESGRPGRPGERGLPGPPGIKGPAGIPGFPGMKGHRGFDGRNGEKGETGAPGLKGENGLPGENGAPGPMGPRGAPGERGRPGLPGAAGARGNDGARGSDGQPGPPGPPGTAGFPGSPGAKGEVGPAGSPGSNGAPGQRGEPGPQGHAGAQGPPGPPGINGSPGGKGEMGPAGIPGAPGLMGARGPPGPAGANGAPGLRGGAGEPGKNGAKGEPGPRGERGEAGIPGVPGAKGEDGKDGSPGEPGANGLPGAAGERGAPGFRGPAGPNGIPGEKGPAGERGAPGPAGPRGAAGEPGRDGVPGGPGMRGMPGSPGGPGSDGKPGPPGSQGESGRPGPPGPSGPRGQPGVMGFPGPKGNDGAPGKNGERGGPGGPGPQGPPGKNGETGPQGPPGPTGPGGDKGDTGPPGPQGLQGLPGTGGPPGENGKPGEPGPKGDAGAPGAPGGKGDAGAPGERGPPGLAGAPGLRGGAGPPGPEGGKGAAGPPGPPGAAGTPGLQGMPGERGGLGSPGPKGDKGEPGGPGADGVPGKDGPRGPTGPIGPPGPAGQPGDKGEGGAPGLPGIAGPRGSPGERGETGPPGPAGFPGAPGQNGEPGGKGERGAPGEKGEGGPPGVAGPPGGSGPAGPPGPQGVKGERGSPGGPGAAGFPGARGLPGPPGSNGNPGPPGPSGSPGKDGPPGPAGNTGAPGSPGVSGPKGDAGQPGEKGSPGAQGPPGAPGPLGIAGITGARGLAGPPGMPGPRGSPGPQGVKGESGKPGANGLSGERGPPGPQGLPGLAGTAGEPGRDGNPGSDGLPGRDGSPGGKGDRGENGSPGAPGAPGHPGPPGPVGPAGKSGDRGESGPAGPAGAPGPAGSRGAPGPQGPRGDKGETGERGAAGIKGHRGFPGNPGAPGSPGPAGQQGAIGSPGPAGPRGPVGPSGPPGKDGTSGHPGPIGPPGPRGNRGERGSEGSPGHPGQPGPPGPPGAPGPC
The target in test [3] is collagen-related peptide (CRP) GCO-(GPO)10-GCOG-NH2, cross-linked. Kind of test: SPR, Aegyptin over immobilized cross-linked (GPO)10 peptide, two-state model; Kd1.
Test [4] shares this target. Briefly: SPR, Aegyptin over immobilized cross-linked (GPO)10, two-state binding model (the table prints 5.101 µM).
Test [5] shares this target. Briefly: SPR, Aegyptin over immobilized cross-linked (GPO)10 peptide, two-state model; Ka1.
The target is the same in test [6]. Briefly: SPR, Aegyptin over immobilized cross-linked (GPO)10 peptide, two-state model.
The target of test [7] is horse tendon insoluble fibrillar Horm collagen (Chrono-Log), collagen I (95%) and III (5%) (horse). Briefly: cell-based or functional assay.

pKd: −log10 of the molar value.

The koff is the rate constant with which the complex falls apart. As a reminder, the pKd is the negative decadic logarithm of the Kd, by convention in mol/L. The low end stands for a large Kd, the high end for a small Kd. The term kon denotes a measure of how fast the partners come together. Lower therefore signals slower complex formation.

Sequence of soluble collagen type I (pepsin-digested, non-fibrillar, triple helical; BD Biosciences) (human) (P02452 179-1192 limits assumed, chain 1 of 2): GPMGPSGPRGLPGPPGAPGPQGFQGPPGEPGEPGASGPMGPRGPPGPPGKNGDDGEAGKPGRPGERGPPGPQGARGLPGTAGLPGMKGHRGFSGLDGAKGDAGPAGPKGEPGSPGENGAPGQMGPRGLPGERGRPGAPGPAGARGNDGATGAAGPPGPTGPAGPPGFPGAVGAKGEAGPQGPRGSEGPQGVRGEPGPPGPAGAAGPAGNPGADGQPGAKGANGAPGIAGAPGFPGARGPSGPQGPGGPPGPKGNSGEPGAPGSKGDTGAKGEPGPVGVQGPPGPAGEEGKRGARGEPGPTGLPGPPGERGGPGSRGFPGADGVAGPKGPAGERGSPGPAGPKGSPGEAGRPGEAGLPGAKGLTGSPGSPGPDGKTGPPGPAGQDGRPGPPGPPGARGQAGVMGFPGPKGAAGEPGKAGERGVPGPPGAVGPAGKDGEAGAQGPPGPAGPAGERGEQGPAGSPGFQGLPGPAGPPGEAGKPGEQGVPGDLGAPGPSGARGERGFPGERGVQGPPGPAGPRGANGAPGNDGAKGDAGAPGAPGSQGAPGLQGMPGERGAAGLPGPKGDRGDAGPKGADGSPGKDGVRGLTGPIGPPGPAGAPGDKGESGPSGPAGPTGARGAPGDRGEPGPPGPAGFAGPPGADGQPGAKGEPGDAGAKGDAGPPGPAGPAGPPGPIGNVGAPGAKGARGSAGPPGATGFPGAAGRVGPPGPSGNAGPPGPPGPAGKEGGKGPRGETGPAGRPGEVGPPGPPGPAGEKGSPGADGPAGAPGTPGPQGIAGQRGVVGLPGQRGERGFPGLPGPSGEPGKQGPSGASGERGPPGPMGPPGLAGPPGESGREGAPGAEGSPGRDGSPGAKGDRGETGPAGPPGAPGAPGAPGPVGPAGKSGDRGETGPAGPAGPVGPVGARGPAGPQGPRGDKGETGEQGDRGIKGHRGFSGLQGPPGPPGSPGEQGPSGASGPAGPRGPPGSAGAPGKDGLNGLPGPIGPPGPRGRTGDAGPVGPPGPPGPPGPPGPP
Sequence of soluble collagen type I (pepsin-digested, non-fibrillar, triple helical; BD Biosciences) (human) (P08123 91-1104 limits assumed, chain 2 of 2, further chain): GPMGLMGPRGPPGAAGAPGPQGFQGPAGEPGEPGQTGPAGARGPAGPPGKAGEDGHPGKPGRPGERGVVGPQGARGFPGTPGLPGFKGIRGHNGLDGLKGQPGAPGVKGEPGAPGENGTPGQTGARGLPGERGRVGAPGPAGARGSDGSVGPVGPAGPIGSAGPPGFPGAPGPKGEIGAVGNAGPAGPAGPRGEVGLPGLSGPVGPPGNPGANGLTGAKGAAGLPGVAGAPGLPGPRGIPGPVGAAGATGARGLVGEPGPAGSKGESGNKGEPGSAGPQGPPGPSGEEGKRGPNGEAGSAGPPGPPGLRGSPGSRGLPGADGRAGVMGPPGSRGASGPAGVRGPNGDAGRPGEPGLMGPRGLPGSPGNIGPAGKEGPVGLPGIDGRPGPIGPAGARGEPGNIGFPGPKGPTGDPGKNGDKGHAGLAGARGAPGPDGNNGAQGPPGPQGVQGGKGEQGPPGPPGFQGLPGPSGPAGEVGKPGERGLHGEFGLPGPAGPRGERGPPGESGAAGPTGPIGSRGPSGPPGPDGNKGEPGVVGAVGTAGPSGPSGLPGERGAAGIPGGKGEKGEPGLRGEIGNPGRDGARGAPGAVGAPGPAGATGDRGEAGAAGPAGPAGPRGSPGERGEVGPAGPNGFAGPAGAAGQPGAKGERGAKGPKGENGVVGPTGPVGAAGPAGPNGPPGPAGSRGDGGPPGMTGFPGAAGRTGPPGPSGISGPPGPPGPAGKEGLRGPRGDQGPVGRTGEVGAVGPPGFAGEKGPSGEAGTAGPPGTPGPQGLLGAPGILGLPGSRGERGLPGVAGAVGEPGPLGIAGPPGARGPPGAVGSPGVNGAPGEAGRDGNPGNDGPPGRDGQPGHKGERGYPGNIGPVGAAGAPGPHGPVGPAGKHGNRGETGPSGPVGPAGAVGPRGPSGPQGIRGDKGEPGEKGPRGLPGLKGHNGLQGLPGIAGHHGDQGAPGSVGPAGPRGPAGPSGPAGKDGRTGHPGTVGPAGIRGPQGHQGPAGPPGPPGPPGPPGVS

Turning to “Ae. aegypti saliva (collected by oil-induced salivation)”, the Response (RU) was 556 RU in test [1] and 348 RU in test [2].

In test [3], “recombinant Aegyptin (mature protein with C-terminal 6xHis tag, expressed in 293-F cells) (from UniProt O01949 20-273)” came in with a koff of 1.19 s⁻¹. Moreover, the pKd in test [4] was 5.30. For the same substance, in test [5], the kon amounted to 206000 M⁻¹ s⁻¹. In test [6], this substance showed a pKd of 5.29 and a Kd2 of 0.0289 s⁻¹.

On to “Aegyptin C-terminus-2 (137 aa), truncated form without GEEDA repeats (from UniProt O01949 137-273)”, for which the collagen-induced platelet aggregation in test [7] was 3 µM.
